Values quoted from earlier work, collected in PMC3587688.

Molecular target: ephrin-B2 (Homo sapiens) (UniProt P52799)
Sequence (P52799 28-333): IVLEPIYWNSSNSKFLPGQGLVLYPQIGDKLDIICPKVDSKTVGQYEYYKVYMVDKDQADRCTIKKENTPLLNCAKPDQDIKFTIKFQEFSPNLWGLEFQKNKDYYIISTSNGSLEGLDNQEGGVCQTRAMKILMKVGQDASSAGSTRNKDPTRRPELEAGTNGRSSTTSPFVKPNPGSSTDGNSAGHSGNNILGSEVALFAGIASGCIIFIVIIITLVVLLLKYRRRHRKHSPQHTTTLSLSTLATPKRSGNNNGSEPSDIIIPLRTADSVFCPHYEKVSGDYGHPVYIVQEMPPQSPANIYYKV

Chain of HeV-G (O89343 whole entry): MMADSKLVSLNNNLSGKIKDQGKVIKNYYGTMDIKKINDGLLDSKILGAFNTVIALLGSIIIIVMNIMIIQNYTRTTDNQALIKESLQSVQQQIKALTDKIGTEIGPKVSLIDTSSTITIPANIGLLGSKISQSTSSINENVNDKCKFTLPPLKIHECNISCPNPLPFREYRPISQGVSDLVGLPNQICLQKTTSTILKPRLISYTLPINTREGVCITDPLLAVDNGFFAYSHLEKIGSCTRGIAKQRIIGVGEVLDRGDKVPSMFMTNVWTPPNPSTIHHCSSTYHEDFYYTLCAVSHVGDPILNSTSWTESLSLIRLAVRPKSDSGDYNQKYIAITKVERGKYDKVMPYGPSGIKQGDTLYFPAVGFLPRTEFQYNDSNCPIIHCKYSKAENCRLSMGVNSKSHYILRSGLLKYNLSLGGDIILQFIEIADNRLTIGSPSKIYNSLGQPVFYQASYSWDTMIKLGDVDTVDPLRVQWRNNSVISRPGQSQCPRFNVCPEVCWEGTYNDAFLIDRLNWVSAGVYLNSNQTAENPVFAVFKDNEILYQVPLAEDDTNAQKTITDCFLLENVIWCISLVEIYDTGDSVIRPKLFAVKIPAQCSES

HeV-G (from UniProt O89343)
Kd: 0.57 nM
